Results published in patent US20150141617A1, “PRODUCTION AND PURIFICATION OF ACTIVE EUKARYOTIC FORMYLGLYCINEGENERATING ENZYME (FGE) VARIANTS” (Universität Bielefeld, priority 2013, published 2015).

Legend:
steroid sulfatase (STS) = assay: Steroid sulfatase (STS) activity assay after co-expression with FGE in MSDi Tet-On cells; type: cell-based, human; conditions: vs STS expressed alone; doxycycline induction
Experimental: Activity assays of STS were performed as described earlier (15, 23). For western blot analysis, polyclonal antisera against FGE and steroid sulfatase were used as primary antibodies. Horseradish peroxidase-conjugated goat anti-rabbit antibody was used as secondary antibodies. Signals of steroid sulfatase are given as relative amounts, i.e. related to signal intensities detected in cells expressing steroid sulfatase only. Relative specific sulfatase activities were calculated, i.e. catalytic activity divided by the western blot signal (arbitrary units) and referred to that of cells expressing the sulfatase only (relative specific sulfatase activity=1). Absolute values for this reference are given in the legends.
Using this method the inventors examined whether the RYSR motif is required for the activation of sulfatases. cDNAs encoding steroid sulfatase (STS) alone or co-transfected along with cDNAs encoding RYSR-motif alanine variants of FGE in immortalized MSD Tet-On cells were transfected (FIG. 9C). Upon doxycycline induction, STS was barely active when expressed alone, whereas co-expression with FGE-wt increased the activity of STS approx. 50-fold, as observed previously (12).

[1] = molecular target: T1, recombinant furin (rFurin) (Homo sapiens, UniProt P09958); assay: In vitro furin cleavage assay; type: biochemical
T1 construct: purchased NEB
Experimental: CHO-FD11 cells stably expressing FGE-His6 or HT1080 cells were grown for 24 h, and cells and medium were harvested. For treatment with furin in vitro cell pellets were resuspended in HEPES pH 7.5 buffer containing 1 mM CaCl2 and 0.5% Triton X-100 and lysed in the absence of protease inhibitors by sonication on ice. Appropriate amounts of cell lysate and medium were incubated for 3 h at 25° C. with 4 units of furin (NEB) with or without 25 μM decanoyl-RVKR-CMK (Alexis biochemicals) as indicated in the figures. For in vivo treatment, HT1080 Tet-On cells were transiently transfected with pBI-FGE-HA and 4 h post-transfection, the medium was replenished with medium containing 20 ng/mL doxycycline and various concentrations of decanoyl-RVKR-CMK or only DMSO as a carrier control. The cells and medium were collected after 16 h of induction/treatment for further analysis. The samples were boiled in Laemmli buffer and analyzed by SDS-PAGE and western blotting with FGE antiserum.
In mammals, the proproteinconvertase family comprises nine enzymes that differ in their substrate specificity and tissue-specific expression and/or subcellular localization (17). Furin is the best characterized mammalian PC with a ubiquitous tissue distribution and it is the major convertase in the secretory pathway. To analyze the role of furin in the processing of FGE the inventors expressed FGE in cells that are deficient for furin. […] When cell homogenate and medium from CHO-FD11 cells stably expressing FGE-His were treated with commercially available recombinant furin (rFurin), almost half the amount of FGE was processed, as observed for both cells and medium (FIG. 12D). Using this in vitro furin cleavage assay, the inventors also examined whether endogenous intracellular FGE is susceptible to furin processing. Indeed, rFurin readily converted almost 90% of endogenous fl-FGE from untransfected HT1080 cells to the truncated form (FIG. 12E).
Although FGE is an ER resident protein, it lacks a canonical ER-retention motif. […] In this study, using the in vitro furin cleavage assay, the inventors assessed furin-mediated processing of the FGE-ERp44 covalent complex (FIG. 8). Homogenates, pre-treated with NEM (to prevent post-lysis disulfide shuffling), from HT1080 cells expressing either FGE alone or FGE plus myc-ERp44 together from a bi-directional promoter were incubated with rFurin and analyzed by SDS-PAGE under non-reducing conditions. Upon overexpression, intracellular FGE via its N-terminal cysteines (C50 and C52) forms covalently cross-bridged homodimers (FIG. 15, lane 1 and 2) and, additionally, FGE-ERp44 heterodimers when co-expressed with ERp44 (FIG. 15, lane 4 and 6) as previously observed (13). Removal of the N-terminus by furin cleavage should lead to a disappearance of the homo-/hetero-dimeric FGE forms, which serves as an indicator for accessibility of the furin cleavage motif in FGE.

furin = furin (Homo sapiens, UniProt P09958); assay: FGE processing in CHO-FD11 cells co-expressing furin; type: cell-based; parameters: expressed in transfected cells; host or cells: CHO-FD11 / CHO-FD11 Tet-On (furin-deficient CHO) cells, transient co-transfection with FGE
Text: The resulting constructs were verified by full-length sequencing of the coding region to exclude any PCR prone errors. Plasmids for expression of the PCs encoding human furin (Gene ID 5045), human PACE4 (=PCSK6, Gene ID 5046), murine […] (=Pcsk5, Gene ID 18552) and rat PC7 (=Pcsk7, Gene ID 29606) were kindly provided by Abdel-Majid Khatib (18). Note that the PC cDNAs were encoded as pIRES constructs coding also for enhanced green fluorescence protein (EGFP) such that EGFP expression levels serve as a measure of the expression levels of PCs.
3 μg of pSB-FGE-RGS-His6 vector was used for single transfections of HT1080, HeLa, HEK 293, BHK and CHO cells. Conditioned medium was collected after 24 h and centrifuged (500×g, 5 min) Cells were washed once with PBS, treated with trypsin (Lonza) and pelleted by 250×g to remove the medium. Cell pellets were resuspended in PBS (pH 7.4) containing protease inhibitor (PI) cocktail (Sigma) and lysed by sonication 3×10 s on ice. […]
In mammals, the proproteinconvertase family comprises nine enzymes that differ in their substrate specificity and tissue-specific expression and/or subcellular localization (17). […] Indeed, rFurin readily converted almost 90% of endogenous fl-FGE from untransfected HT1080 cells to the truncated form (FIG. 12E). […]

T1 sequence (P09958 108-794): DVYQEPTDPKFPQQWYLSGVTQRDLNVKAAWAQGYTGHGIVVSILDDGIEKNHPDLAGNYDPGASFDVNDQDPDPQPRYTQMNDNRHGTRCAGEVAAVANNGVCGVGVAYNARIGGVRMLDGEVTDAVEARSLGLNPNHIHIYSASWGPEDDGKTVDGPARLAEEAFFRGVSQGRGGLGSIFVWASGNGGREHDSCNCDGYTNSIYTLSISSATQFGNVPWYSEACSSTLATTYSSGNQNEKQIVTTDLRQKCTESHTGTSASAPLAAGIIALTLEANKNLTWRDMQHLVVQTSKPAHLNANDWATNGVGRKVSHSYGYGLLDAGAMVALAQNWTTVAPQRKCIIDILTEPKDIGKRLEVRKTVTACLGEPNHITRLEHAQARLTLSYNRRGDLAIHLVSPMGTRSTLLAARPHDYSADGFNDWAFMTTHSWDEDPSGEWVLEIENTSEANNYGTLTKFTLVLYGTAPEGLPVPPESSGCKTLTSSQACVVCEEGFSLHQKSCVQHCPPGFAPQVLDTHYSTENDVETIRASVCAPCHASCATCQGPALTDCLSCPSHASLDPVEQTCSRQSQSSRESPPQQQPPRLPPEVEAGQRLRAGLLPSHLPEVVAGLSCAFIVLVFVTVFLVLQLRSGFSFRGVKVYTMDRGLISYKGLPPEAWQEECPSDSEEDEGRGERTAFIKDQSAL
Sequence of furin (P09958 108-794): as above

B1: FGE: human wild type full length formylglycine generating enzyme with RYSR furin cleavage motif, SEQ ID NO:2 (protein)
chain: ADEFSQEAGTGAGAGSLAGSCGCGTPQRPGAHGSSAAAHRYSREANAPGPVPGERQLAHSKMVPIPAGVFTMGTDDPQIKQDGEAPARRVTIDAFYMDAYEVSNTEFEKFVNSTGYLTEAEKFGDSFVFEGMLSEQVKTNIQQAVAAAPWWLPVKGANWRHPEGPDSTILHRPDHPVLHVSWNDAVAYCTWAGKRLPTEAEWEYSCRGGLHNRLFPWGNKLQPKGQHYANIWQGEFPVTNTGEDGFQGTAPVDAFPPNGYGLYNIVGNAWEWTSDWWTVHHSVEETLNPKGPPSGKDRVKKGGSYMCHRSYCYRYRCAARSQNTPDSSASNLGFRCAADRLPTMDSGRGSHHHHHHH
modifications: cloned matured acitve full length FGE with 6x His tag on C-terminus
Which “increase of STS activity on co-expression” value (steroid sulfatase (STS)) does the source give for B1 here?
Its value is “approx. 50 fold”.

And the “accessibility of the furin-cleavage site in FGE monomer and homodimer” value ([1]; NEM-treated HT1080 Tet-On lysates)?
The value was “accessible to furin”.

And the “furin cleavage of FGE in complex with ERp44” value ([1]; NEM-treated HT1080 Tet-On lysates co-expressing myc-ERp44)?
The value was “protected from furin cleavage”.

And the “amount of FGE processed by rFurin” value ([1]; cell homogenate and medium from CHO-FD11 cells, 3 h 25° C.)?
Its value is “almost half”.

What about the “endogenous fl-FGE converted to the truncated form by rFurin” value ([1]; lysate of untransfected HT1080 cells) of the same molecule?
Its value is ~90%.

What about the Δ72-FGE in secretions (furin; coexpression of furin, CHO-FD11 Tet-On) of the same molecule?
The Δ72-FGE in secretions was ~100%.

And the “form of secreted FGE” value (furin; furin replenished by exogenous expression)?
The value was “all secreted FGE was in the truncated form”.
